A short description of this data set: protein stability index of a GFP-peptide fusion (GPS, HEK-293T) (PSI 1-6); higher = more stable. The settings on record: c terminus: a fixed tail appended.

± gives the standard deviation.
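Further: 24-mer peptide tiles fused after GFP, lentivirally expressed, FACS-sorted into six equal bins by GFP/DsRed ratio, decoded by Illumina sequencing, PSI is the read-weighted mean bin number.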

On to AAAYGHALEQYEGESWRESARYLE [P3H4], for which the protein stability index runs as follows: (treatment: DMSO) 4.19 ± 0.23; (treatment: MLN4924 1 uM, 8 h) 4.21 ± 0.21.

Regarding AAGEPLECPTCGHSYNVTQRRPRV [RNF208], the protein stability index turned out to be 3.79 ± 0.16 (treatment: DMSO) and 4.18 ± 0.21 (treatment: MLN4924 1 uM, 8 h).

As to AAGGVPGGGSNNGKTPVCHQCHKV [PDLIM7], the protein stability index reads like this: (treatment: DMSO) 3.32 ± 0.62; (treatment: MLN4924 1 uM, 8 h) 3.85 ± 0.56.

Regarding AAGKAEVVLGNIIKKKGWRRSSLV [KCNAB2], the protein stability index was 2.87 ± 0.24 (treatment: DMSO) and 2.96 ± 0.31 (treatment: MLN4924 1 uM, 8 h).

AAINSIYSNTDANILFYVVGLRNT [GLT8D2]: the protein stability index by setting is: (treatment: DMSO) 2.97 ± 0.91; (treatment: MLN4924 1 uM, 8 h) 2.75 ± 0.73.

For the sequence AAKQNHVTADDFVQTSVIGSNGYI [EHMT1], the protein stability index (treatment: DMSO) came to 3.56 ± 0.17 and the protein stability index (treatment: MLN4924 1 uM, 8 h) turned out to be 3.68 ± 0.1.

With AALDGGRSLEELTRLAFELFAEEQ [LPCAT4], the protein stability index is, setting by setting: (treatment: DMSO) 2.91 ± 0.24; (treatment: MLN4924 1 uM, 8 h) 3.33 ± 0.38.

For AAQELENQMKERQGLFFDMEAYLP [TMEM120A], the protein stability index (treatment: DMSO) was found to be 3.69 ± 0.27 and the protein stability index (treatment: MLN4924 1 uM, 8 h) turned out to be 3.87 ± 0.21.

On to AARGKERCVRVFLEHGADPTVKDL [ASB7], for which the protein stability index runs as follows: (treatment: DMSO) 3.73 ± 0.17; (treatment: MLN4924 1 uM, 8 h) 3.76 ± 0.38.

Regarding AATGGATLAQTISEAAIGGAMLGQ [HDAC6], the protein stability index reads like this: (treatment: DMSO) 4.1 ± 0.57; (treatment: MLN4924 1 uM, 8 h) 4.11 ± 0.21.

For the sequence ACFLVRGLLLRGAVDGILHMFTPK [SLC6A17], the protein stability index came out at 2.39 ± 0.73 (treatment: DMSO) and 2.83 ± 1.2 (treatment: MLN4924 1 uM, 8 h).

On to ACNFEPHESFFSLFSDPRSTRLTR [ZER1], for which the protein stability index was determined as 2.86 ± 0.22 (treatment: DMSO) and 2.92 ± 0.21 (treatment: MLN4924 1 uM, 8 h).

As for ADGDGGGGQCCRRQDSPSPDFYKQ [PCDHGC5], the protein stability index runs as follows: (treatment: DMSO) 4.67 ± 0.25; (treatment: MLN4924 1 uM, 8 h) 4.44 ± 0.4.

ADKKRSGKKKISKADIGAPSGFKH [WAS]: the protein stability index is 4.63 ± 0.27 (treatment: DMSO) and 4.87 ± 0.24 (treatment: MLN4924 1 uM, 8 h).

Regarding ADPLQLNKALSIILHLICLLEKVP [FEM1C], the protein stability index (treatment: DMSO) stood at 3 ± 0.24 and the protein stability index (treatment: MLN4924 1 uM, 8 h) worked out at 3.16 ± 0.9.

Regarding AEAAPELDLFAMKPPETSVPVVTP [SNAP91], the protein stability index is, setting by setting: (treatment: DMSO) 4.89 ± 0.15; (treatment: MLN4924 1 uM, 8 h) 4.98 ± 0.1.

As for AEFILLGLLEAPGLQPVVFVLFLF [OR3A1], the protein stability index reads like this: (treatment: DMSO) 2.68 ± 0.32; (treatment: MLN4924 1 uM, 8 h) 2.95 ± 0.4.

AEKSVAPSNTGSRTTSVRCRGIPR [NEK8]: the protein stability index is, setting by setting: (treatment: DMSO) 4.63 ± 0.16; (treatment: MLN4924 1 uM, 8 h) 4.7 ± 0.26.

AEPSRFSSSDSDFDDEEPRKFYVH [FCHO1]: the protein stability index reads like this: (treatment: DMSO) 4.87 ± 0.18; (treatment: MLN4924 1 uM, 8 h) 4.87 ± 0.13.

Regarding AEQEPTRKLFEVESVTHHDYRMEL [SPAG8], the protein stability index (treatment: DMSO) is 4.16 ± 0.16 and the protein stability index (treatment: MLN4924 1 uM, 8 h) stood at 4.33 ± 0.18.

As to AESDYSNNIMKCRSRYDGHRIWMY [LOXL2], the protein stability index runs as follows: (treatment: DMSO) 2.4 ± 0.29; (treatment: MLN4924 1 uM, 8 h) 2.1 ± 0.38.

Sequence AFHINKGLVKKYMNSLLIGELSPE [FADS1] displayed a protein stability index (treatment: DMSO) of 2.45 ± 0.47 and a protein stability index (treatment: MLN4924 1 uM, 8 h) of 2.32 ± 0.26.

On to AGGAPGSPIPSPPGPGDDLCSDLE [HES6], for which the protein stability index reads like this: (treatment: DMSO) 5.51 ± 0.45; (treatment: MLN4924 1 uM, 8 h) 5.34 ± 0.4.

As to AGIELIIEDDIRPEKQKRKPGLRR [MYBL2], the protein stability index stood at 3.63 ± 0.24 (treatment: DMSO) and 4.26 ± 0.43 (treatment: MLN4924 1 uM, 8 h).

For the sequence AGREVFDYSHRQKEQDVEKELRDG [NFE2L1], the protein stability index runs as follows: (treatment: DMSO) 4.99 ± 0.25; (treatment: MLN4924 1 uM, 8 h) 5.53 ± 0.52.

Take AGRRMFPSYKVKVTGLNPKTKYIL [TBX5]: the protein stability index (treatment: DMSO) was 2.12 ± 0.4 and the protein stability index (treatment: MLN4924 1 uM, 8 h) came to 2.2 ± 0.29.

Take AGYEVDKIAQNLDFVNLMAYDFHG [CHIT1]: the protein stability index reads like this: (treatment: DMSO) 2.28 ± 0.41; (treatment: MLN4924 1 uM, 8 h) 2.36 ± 0.19.

In turn, AGYYELAQVLLAMHANVEDRGIKG [ANKRD17] had a protein stability index (treatment: DMSO) of 2.02 ± 0.21 and a protein stability index (treatment: MLN4924 1 uM, 8 h) of 1.96 ± 0.34.

As to AHAVLGQHSHVVRYFSAWAEDDHM [WEE1], the protein stability index by setting is: (treatment: DMSO) 3.55 ± 0.43; (treatment: MLN4924 1 uM, 8 h) 3.71 ± 0.057.

For the sequence AIMRSPQMVSAIVRTMQNTNDVET [CTNNB1], the protein stability index runs as follows: (treatment: DMSO) 3.77 ± 0.098; (treatment: MLN4924 1 uM, 8 h) 3.81 ± 0.14.

On to AITRVSDRFSGETSAAALSPMSAA [SMTNL2], for which the protein stability index is, setting by setting: (treatment: DMSO) 4.06 ± 0.15; (treatment: MLN4924 1 uM, 8 h) 3.63 ± 0.29.

Turning to AKGIPQRAPPKRKRKRVKQRINTY [PCMTD1], the protein stability index reads like this: (treatment: DMSO) 4.41 ± 0.14; (treatment: MLN4924 1 uM, 8 h) 4.58 ± 0.16.

Sequence AKSLSFRKGELVTASKAIIEKEYQ [ADD1] had a protein stability index (treatment: DMSO) of 3.71 ± 0.19 and a protein stability index (treatment: MLN4924 1 uM, 8 h) of 3.94 ± 0.45.

As to AKVNYVKNNICFMSHHQEELVPKQ [SLC2A12], the protein stability index was determined as 3 ± 0.41 (treatment: DMSO) and 3.16 ± 0.41 (treatment: MLN4924 1 uM, 8 h).

Regarding ALDSADLPPPSALKKGSKEKQADF [NFE2L1], the protein stability index was 5.33 ± 0.2 (treatment: DMSO) and 5.39 ± 0.21 (treatment: MLN4924 1 uM, 8 h).

Consider ALHHVHTHLILHRDLKTQNILLDK [NEK8], for which the protein stability index reads like this: (treatment: DMSO) 2.25 ± 0.19; (treatment: MLN4924 1 uM, 8 h) 2.29 ± 0.25.

Values taken from the supplement of paper PMC10567573.
